Experiments:
Details in all cases: both partners purified
lysozyme [1] = biological target: T1, lysozyme (Gallus gallus (hen egg white), by PDB …, UniProt P00698); assay: ITC; antibody (about 30 uM) titrated into lysozyme (about 2 uM), 25 injections of 10 ul; PBS (20 mM, pH 7.4), 143 mM NaCl; 293 K (20 °C)
T1 construct: lysozyme, the antigen of the anti-lysozyme antibody HyHEL-10; also called antigen

lysozyme [2] = biological target: T1, lysozyme; assay: ITC; antibody (about 30 uM) titrated into lysozyme (about 2 uM), 25 injections of 10 ul; PBS (20 mM, pH 7.4), 143 mM NaCl; 298 K (25 °C)
lysozyme [3] = biological target: T1, lysozyme; assay: ITC; antibody (about 30 uM) titrated into lysozyme (about 2 uM), 25 injections of 10 ul; PBS (20 mM, pH 7.4), 143 mM NaCl; 303 K (30 °C)
lysozyme [4] = biological target: T1, lysozyme; assay: ITC; antibody (about 30 uM) titrated into lysozyme (about 2 uM), 25 injections of 10 ul; PBS (20 mM, pH 7.4), 143 mM NaCl; 293 K (20 °C); remark: listed apart in the source

T1 sequence (P00698 19-147): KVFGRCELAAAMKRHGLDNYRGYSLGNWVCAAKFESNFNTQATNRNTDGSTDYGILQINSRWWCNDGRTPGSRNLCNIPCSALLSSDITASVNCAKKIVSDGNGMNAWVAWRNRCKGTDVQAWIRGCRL

Row | dH (lysozyme [1]) | dH (lysozyme [2]) | dH (lysozyme [3]) | dH (lysozyme [4]) | Binder
1 | -23.78 ± 0.0598 kcal/mol | -27.1 ± 0.086 kcal/mol | -31.1 ± 0.347 kcal/mol |  | HyHEL-10 Fv fragment, H:R71A mutant (antibody, V domains shown, as the VH of m1, with R71A; as the VL of m1; Fv fragment; the text throughout has H:R71A) VH: DVQLQESGPSLVKPSQTLSLTCSVTGDSITSDYWSWIRKFPGNRLEYMGYVSYSGSTYYNPSLKSRISITADTSKNQYYLDLNSVTTEDTATYYCANWDGDYWGQGTLVTVSA VL: DIVLTQSPATLSVTPGNSVSLSCRASQSIGNNLHWYQQKSHESPRLLIKYASQSISGIPSRFSGSGSGTDFTLSINSVETEDFGMYFCQQSNSWPYTFGGGTKLEIK
2 |  | -17.57 ± 0.0359 kcal/mol | -18.97 ± 0.055 kcal/mol | -16.46 ± 0.0502 kcal/mol | HyHEL-10 Fv fragment, L:R45A mutant (antibody, V domains shown, as the VH of m1; as the VL of m1, with R45A; Fv fragment; the text throughout has L:R45A) VH: DVQLQESGPSLVKPSQTLSLTCSVTGDSITSDYWSWIRKFPGNRLEYMGYVSYSGSTYYNPSLKSRISITRDTSKNQYYLDLNSVTTEDTATYYCANWDGDYWGQGTLVTVSA VL: DIVLTQSPATLSVTPGNSVSLSCRASQSIGNNLHWYQQKSHESPALLIKYASQSISGIPSRFSGSGSGTDFTLSINSVETEDFGMYFCQQSNSWPYTFGGGTKLEIK
